Measured values reported in US20260193342A1 (ZOETIS SERVICES, published 2026).
Positions count from the first letter of the chain named.

B1: mAb2 of Table 4A, caninized anti-NGF antibody ZTS-841, canine IgGA, N434W (antibody)
heavy: EVQLVESGGDLVKPGGSLRLSCVASGFTFSSHGMHWVRQSPGKGLQWVAVINSGGSSTYYTDAVKGRFTISRDNAKNTVYLQMNSLRAEDTAMYYCAKESVGGWEQLVGPHFDYWGQGTLVIVSSASTTAPSVFPLAPSCGSTSGSTVALACLVSGYFPEPVTVSWNSGSLTSGVHTFPSVLQSSGLHSLSSMVTVPSSRWPSETFTCNVVHPASNTKVDKPVFNECRCTDTPPCPVPEPLGGPSVLIFPPKPKDILRITRTPEVTCVVLDLGREDPEVQISWFVDGKEVHTAKTQSREQQFNGTYRVVSVLPIEHQDWLTGKEFKCRVNHIDLPSPIERTISKARGRAHKPSVYVLPPSPKELSSSDTVSITCLIKDFYPPDIDVEWQSNGQQEPERKHRMTPPQLDEDGSYFLYSKLSVDKSRWQQGDPFTCAVMHETLQWHYTDLSLSHSPGK
VL: QSVLTQPTSVSGSLGQRVTISCSGSTNNIGILGASWYQLFPGKAPKLLVYGNGNRPSGVPDRFSGADSGDSVTLTITGLQAEDEADYYCQSFDTTLGAHVFGGGTHLTVL
notes: also called ID No. 44
B2: mAb2 of Table 4A, caninized anti-NGF antibody ZTS-841, canine IgGB, N434I (antibody)
heavy: EVQLVESGGDLVKPGGSLRLSCVASGFTFSSHGMHWVRQSPGKGLQWVAVINSGGSSTYYTDAVKGRFTISRDNAKNTVYLQMNSLRAEDTAMYYCAKESVGGWEQLVGPHFDYWGQGTLVIVSSASTTAPSVFPLAPSCGSTSGSTVALACLVSGYFPEPVTVSWNSGSLTSGVHTFPSVLQSSGLYSLSSMVTVPSSRWPSETFTCNVAHPASKTKVDKPVPKRENGRVPRPPDCPKCPAPEMLGGPSVFIFPPKPKDTLLIARTPEVTCVVVDLDPEDPEVQISWFVDGKQMQTAKTQPREEQFNGTYRVVSVLPIGHQDWLKGKQFTCKVNNKALPSPIERTISKARGQAHQPSVYVLPPSREELSKNTVSLTCLIKDFFPPDIDVEWQSNGQQEPESKYRTTPPQLDEDGSYFLYSKLSVDKSRWQRGDTFICAVMHEALHIHYTQESLSHSPGK
VL: B1 VL
notes: also called ID No. 50
B3: mAb2 of Table 4A, caninized anti-NGF antibody ZTS-841, canine IgGB, N434K (antibody)
heavy: B2 heavy with I447K
VL: B1 VL
notes: also called ID No. 51
B4: mAb2 of Table 4A, caninized anti-NGF antibody ZTS-841, canine IgGA, N434Y (antibody)
heavy: B1 heavy with W443Y
VL: B1 VL
notes: also called ID No. 45
B5: mAb1, caninized anti-IL31 antibody 34D03, canine IgGA, N434Y (antibody)
heavy: EVQLVESGGDLVKPGGSLRLSCVASGFTFSNYGMSWVRQAPGKGLQWVATISYGGSYTYYPDNIKGRFTISRDNAKNTLYLQMNSLRAEDTAMYYCVRGYGYDTMDYWGQGTLVTVSSASTTAPSVFPLAPSCGSTSGSTVALACLVSGYFPEPVTVSWNSGSLTSGVHTFPSVLQSSGLHSLSSMVTVPSSRWPSETFTCNVVHPASNTKVDKPVFNECRCTDTPPCPVPEPLGGPSVLIFPPKPKDILRITRTPEVTCVVLDLGREDPEVQISWFVDGKEVHTAKTQSREQQFNGTYRVVSVLPIEHQDWLTGKEFKCRVNHIDLPSPIERTISKARGRAHKPSVYVLPPSPKELSSSDTVSITCLIKDFYPPDIDVEWQSNGQQEPERKHRMTPPQLDEDGSYFLYSKLSVDKSRWQQGDPFTCAVMHETLQYHYTDLSLSHSPGK
light: EIVMTQSPASLSLSQEEKVTITCKASQSVSFAGTGLMHWYQQKPGQAPKLLIYRASNLEAGVPSRFSGSGSGTDFSFTISSLEPEDVAVYYCQQSREYPWTFGQGTKLEIKRNDAQPAVYLFQPSPDQLHTGSASVVCLLNSFYPKDINVKWKVDGVIQDTGIQESVTEQDKDSTYSLSSTLTMSSTEYLSHELYSCEITHKSLPSTLIKSFQRSEC
notes: VH/VL: the caninized 34D03 entries of the listing; also called ID No. 7; copies: 2 + 2
B6: mAb1, caninized anti-IL31 antibody 34D03, canine IgGB, N434K (antibody)
heavy: EVQLVESGGDLVKPGGSLRLSCVASGFTFSNYGMSWVRQAPGKGLQWVATISYGGSYTYYPDNIKGRFTISRDNAKNTLYLQMNSLRAEDTAMYYCVRGYGYDTMDYWGQGTLVTVSSASTTAPSVFPLAPSCGSTSGSTVALACLVSGYFPEPVTVSWNSGSLTSGVHTFPSVLQSSGLYSLSSMVTVPSSRWPSETFTCNVAHPASKTKVDKPVPKRENGRVPRPPDCPKCPAPEMLGGPSVFIFPPKPKDTLLIARTPEVTCVVVDLDPEDPEVQISWFVDGKQMQTAKTQPREEQFNGTYRVVSVLPIGHQDWLKGKQFTCKVNNKALPSPIERTISKARGQAHQPSVYVLPPSREELSKNTVSLTCLIKDFFPPDIDVEWQSNGQQEPESKYRTTPPQLDEDGSYFLYSKLSVDKSRWQRGDTFICAVMHEALHKHYTQESLSHSPGK
light: B5 light
notes: VH/VL: the caninized 34D03 entries of the listing; also called ID No. 13; copies: 2 + 2
B7: mAb1, caninized anti-IL31 antibody 34D03, canine IgGB, N434I (antibody)
heavy: B6 heavy with K440I
light: B5 light
notes: VH/VL: the caninized 34D03 entries of the listing; also called ID No. 12; copies: 2 + 2
B8: mAb1, caninized anti-IL31 antibody 34D03, canine IgGB, N434G (antibody)
heavy: B6 heavy with K440G
light: B5 light
notes: VH/VL: the caninized 34D03 entries of the listing; also called ID No. 11; copies: 2 + 2
B9: mAb1, caninized anti-IL31 antibody 34D03, canine IgGB, N434A (antibody)
heavy: B6 heavy with K440A
light: B5 light
notes: VH/VL: the caninized 34D03 entries of the listing; also called ID No. 9; copies: 2 + 2
B10: mAb1, caninized anti-IL31 antibody 34D03, canine IgGB, N434F (antibody)
heavy: B6 heavy with K440F
light: B5 light
notes: VH/VL: the caninized 34D03 entries of the listing; also called ID No. 10; copies: 2 + 2
B11: mAb2 of Table 4A, caninized anti-NGF antibody ZTS-841, canine IgGD, N434H (antibody)
heavy: EVQLVESGGDLVKPGGSLRLSCVASGFTFSSHGMHWVRQSPGKGLQWVAVINSGGSSTYYTDAVKGRFTISRDNAKNTVYLQMNSLRAEDTAMYYCAKESVGGWEQLVGPHFDYWGQGTLVIVSSASTTAPSVFPLAPSCGSTSGSTVALACLVSGYFPEPVTVSWNSGSLTSGVHTFPSVLQSSGLYSLSSTVTVPSSRWPSETFTCNVVHPASNTKVDKPVPKESTCKCISPCPVPESLGGPSVFIFPPKPKDILRITRTPEITCVVLDLGREDPEVQISWFVDGKEVHTAKTQPREQQFNSTYRVVSVLPIEHQDWLTGKEFKCRVNHIGLPSPIERTISKARGQAHQPSVYVLPPSPKELSSSDTVTLTCLIKDFFPPEIDVEWQSNGQPEPESKYHTTAPQLDEDGSYFLYSKLSVDKSRWQQGDTFTCAVMHEALQHHYTDLSLSHSPGK
VL: B1 VL
notes: also called ID No. 56

These binders were tested against T1, canine FcRn complex (FcRn-α subunit and β-microglobulin) (canine, UniProt A0A8I3PFR8 25-347, biotin on the BAP tag by BirA (Example 5 only)) (assay: SPR (Biacore), biotinylated FcRn on SA chip, IgG flowed, pH 7.4, 15 C).
T1 sequence (A0A8I3PFR8 entry or part of it, one chain of several): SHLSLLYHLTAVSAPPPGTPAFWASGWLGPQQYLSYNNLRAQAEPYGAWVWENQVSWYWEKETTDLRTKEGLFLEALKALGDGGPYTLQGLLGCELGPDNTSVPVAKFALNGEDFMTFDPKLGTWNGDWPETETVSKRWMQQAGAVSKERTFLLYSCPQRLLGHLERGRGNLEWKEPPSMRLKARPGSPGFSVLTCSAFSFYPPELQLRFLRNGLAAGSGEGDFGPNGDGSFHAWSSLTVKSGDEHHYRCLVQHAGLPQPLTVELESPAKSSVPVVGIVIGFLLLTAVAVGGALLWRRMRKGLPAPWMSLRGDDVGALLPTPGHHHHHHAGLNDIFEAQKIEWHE

Kd [nM] | Binder
1520 | B1
22800 | B2
594 | B3
9530 | B4
573 | B5
7.86 | B6
19600 | B7
26000 | B8
175 | B9
33700 | B10

Each binder was assayed against T1, canine FcRn complex (FcRn-α subunit and …) (assay: SPR (Biacore), biotinylated FcRn on SA chip, IgG flowed, pH 6, 15 C).

Kd [nM] | Binder
10.6 | B1
2.76 | B2
1.93 | B3
12 | B11
14.3 | B4
25.2 | B5
9.11 | B6
77.1 | B7
118 | B8
139 | B9
30.7 | B10
